Source: patent publication US20070196883A1, “ENZYME” (UNIVERSITY OF DUNDEE, priority 1999, published 2007)
pKd: −log10 of the molar value. Like-named read-outs stand apart in the source and are kept apart here. Blank lines part the entries; values can stand above or below the substance they belong to. Ends that are not written are not given here.

Assays:
endogenous PDK1 = molecular target: T1, endogenous PDK1 (Homo sapiens, UniProt O15530); assay: Association of endogenous PDK1 with GST-PIF proteins purified from 293 cells; format: binding; conditions: expressed in 293 cells, glutathione-Sepharose purified; PDK1 immunoblot and activity
T1 construct: endogenous in cells; host or cells: 293 cells
T1 sequence (O15530 1-556): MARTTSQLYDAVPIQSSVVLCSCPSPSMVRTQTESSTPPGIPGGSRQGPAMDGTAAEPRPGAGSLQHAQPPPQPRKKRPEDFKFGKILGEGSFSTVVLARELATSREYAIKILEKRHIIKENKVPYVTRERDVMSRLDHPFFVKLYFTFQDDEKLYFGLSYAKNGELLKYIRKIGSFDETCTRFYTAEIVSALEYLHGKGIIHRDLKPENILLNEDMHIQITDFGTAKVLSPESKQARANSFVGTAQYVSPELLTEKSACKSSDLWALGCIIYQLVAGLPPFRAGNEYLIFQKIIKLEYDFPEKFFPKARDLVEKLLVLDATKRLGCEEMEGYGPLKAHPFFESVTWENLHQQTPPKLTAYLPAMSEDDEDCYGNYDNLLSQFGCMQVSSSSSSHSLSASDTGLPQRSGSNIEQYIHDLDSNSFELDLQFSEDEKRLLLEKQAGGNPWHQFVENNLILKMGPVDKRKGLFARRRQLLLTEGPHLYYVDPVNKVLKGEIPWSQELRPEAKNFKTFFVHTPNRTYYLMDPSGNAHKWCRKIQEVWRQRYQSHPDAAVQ
Description: FIG. 3. Mapping the residues on PIF that are required for the interaction with PDK1. (A) 293 cells were transiently transfected with DNA constructs expressing either the wild type GST-PIF or the indicated point mutations of this protein. The cells were lysed and the GST fusion proteins purified by affinity chromatography on glutathione-Sepharose beads. Each GST-fusion protein was incubated for 30 min at 30° C. with GST-S473D-PKBα and MgATP in the presence or absence of phospholipid vesicles containing 100 μM PtdCho, 100 μM PtdSer, 10 μM sn-1-stearoyl-2-arachidonoyl-D-PtdIns(3,4,5)P3, and the increase in specific activity of GST-S473D-PKBα was determined relative to a control incubation in which the GST fusion protein was omitted. The basal activity of GST-S473D-PKBα was 3.5 U/mg. 2 μg of each protein was electrophoresed on a 10% SDS/polyacrylamide gel and either immunoblotted using a PDK1 antibody raised against whole protein to detect any endogenous PDK1, or stained with Coomassie blue to establish the level of expression of the GST-PIF protein. Similar results were obtained in 5 separate experiments using 2 or more preparations of the wild type and mutant GST-PIF proteins. (B) Yeast harbouring the pAS2-1 wild type PDK1 vector (“PDK1-Vector”) or the empty pAS2-1 vector (“Vector”) were transformed with pGAD10 plasmid coding for the expression of the wild type PIF or the indicated mutants of PIF. The resulting yeast strain was grown on SD-Leu-Trp-Ura-His+3-AT medium which only permits growth of yeast constructs in which GST-PIF and PDK1 are capable of interacting.
Expression of GST-fusion proteins in 293 cells. Up to twenty 10 cm diameter dishes of 293 cells were cultured and each dish transfected with 20 μg of pEBG2T DNA encoding the desired GST-fusion protein using a modified calcium phosphate method. In experiments described in FIG. 1 in which Myc-PDK1 constructs (pCMV5 vector) were coexpressed with GST-PIF (pEBG2T vector) or GST alone (empty pEBG2T vector) 10 μg of each construct was used. […]

PDK1 [1] = assay: Activation of GST-ΔPH-PKBα by PDK1 with or without PIF and phosphoinositide; format: biochemical; conditions: absence of PtdIns(3,4,5)P3
Description: FIG. 8. Maximal activation of PKB by PDK1/PIF requires PtdIns(3,4,5)P3 to interact with both PKB and PDK1. […] The basal activity of GST-ΔPH-PKBα was 3.0 U/mg.
Measurement of PKBα activation after incubation with GST-PIF. This assay was carried out in 2 stages, as described previously; briefly, in the first, GST-PKBα was incubated with GST-PIF (or other indicated PDK1 proteins in the presence or absence of peptides) in the presence of MgATP and phospholipid vesicles.
In Stage 1, an 15 μl reaction mixture was set up containing 66.5 mM Tris/HCl pH 7.5, 0.13 mM EGTA, 0.13% (by vol) 2-mercaptoethanol, 3.3 μM PKI, 1.3 μM microcystin-LR, 13.3 mM Mg(Ac)2, 133 μM unlabelled ATP, 0.4 μM GST-PKBA, 133 μM PtdSer, 133 μM PtdCho in the presence or absence of 13.3 μM PtdIns(3,4,5)P3. The assay was initiated by the addition of 5 μl of 0.2 mg/ml GST-PIF (or other indicated proteins or peptides), after incubation for 30 min at 30° C., stage 2 of the assay was initiated by the addition of 30 μl of a mixture made up of Buffer B containing 2.5 μM PKI, 1 μM microcystin-LR, 10 mM Mg(Ac)2, 100 μM [γ^32P]ATP (200-400 cpm/pmol), 100 μM of the peptide RPRTAAF (SEQ ID NO:13) and 1.25% (by vol) Triton X-100. After 10 min at 30° C., the reactions were terminated by spotting the reaction mixture on to P81 phosphocellulose paper. The papers were washed in 75 mM phosphoric acid and analysed as described previously. A control reaction in which GST-PKBα was omitted was taken as the blank and was always less than 5% of the activity measured in the presence of GST-PKBα. The basal GST-PKBα activity is the activity measured in the absence of PDK1. 1 Unit of GST-PKBα activity was that amount of enzyme required to catalyse the phosphorylation of 1 nmol of the peptide RPRTAAF (SEQ ID NO:13) in 1 min. The assays were linear with time up to a final concentration of 3 U/ml of PDK1 activity in the assay.

PDK1 [2] = molecular target: T2, PDK1 (Homo sapiens, UniProt O15530); assay: Yeast two hybrid interaction of PIF with PDK1; format: binding
T2 construct: expressed in transfected cells; host or cells: yeast strain Y166
T2 sequence (O15530 1-556): T1 sequence (O15530 1-556)
Text: (§1) FIG. 1. Two hybrid interaction of PIF with the kinase domain of PDK1. Yeast were transformed with a pGAD10 plasmid (LEU2) harbouring the C-terminal 77 amino acids of PRK2 (termed PIF) in the presence of either a pAS2-1 plasmid (TRP1) coding for the expression of the wild type PDK1, the kinase domain of PDK1 (residues 1 to 404) or the PH domain of PDK1 (residues 428 to 556) or the empty pAS2-1 vector as a control (denoted by—(A). The position on the plate of each yeast strain is indicated in (A). In (B) the yeast are grown on SD-Leu and Trp deficient media in which all the strains of yeast are capable of growing independently of whether PIF is interacting with PDK1. An interaction between PIF and PDK1 leads to the expression of reporter genes coding for URA3 and HIS1 that will enable growth on SD-Leu-Trp-Ura-His+3-AT medium (C) as well as the induction of β-galactosidase gene expression (D). Alignment of the amino acid sequence of the C-terminal 77 amino acids of PRK2 with the equivalent region of AGC subfamily kinases indicated (E). Identical residues are denoted by white-on-black letters, and similar residues by grey boxes. PRK2 (SEQ ID NO:14; PRK1 (SEQ ID NO:15); PKBα (SEQ ID NO:16); P70S6k (SEQ ID NO:17); SGK (SEQ ID NO:18); PKCζ (SEQ ID NO:19); PKCα (SEQ ID NO:20); PKCβ (SEQ ID NO:21).
(§2) Myc-tagged human PDK1, kinase domain of PDK1 (residues 1-404) and the PH domain of PDK1 (428 to 556) were subcloned into the EcoRI/SalI of the yeast pAS2-1 vector. A yeast two hybrid screen was carried out using a human skeletal muscle library subcloned into the pGAD10 vector (Clontech) transformed into the yeast strain Y166. 4×10^6 yeast cells were transformed with pGAD10 library constructs and PDK1 constructs in the pAS2-1 vector. […] In this system interacting clones from the library are able to grow in medium lacking histidine and uracil and express β-galactosidase which was detected using the Clontech protocol. pGAD10 plasmids from interacting clones were isolated transferred to E. coli, and sequenced. […]

PDK1 [3] = molecular target: T3, PDK1 (Homo sapiens, UniProt O15530); assay: Yeast two hybrid interaction of PIF with PDK1; format: binding; remark: listed apart in the source
T3 construct: expressed in transfected cells; host or cells: yeast strain Y166
T3 sequence (O15530 428-556): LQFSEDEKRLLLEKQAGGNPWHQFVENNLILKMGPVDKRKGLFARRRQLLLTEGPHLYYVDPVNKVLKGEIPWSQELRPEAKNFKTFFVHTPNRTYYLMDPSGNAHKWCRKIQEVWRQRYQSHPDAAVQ
Text: as §1, §2

PDK1 [4] = molecular target: T4, PDK1 (Homo sapiens, UniProt O15530); assay: Yeast two hybrid interaction of PIF with PDK1; format: binding; remark: listed apart in the source
T4 construct: expressed in transfected cells; host or cells: yeast strain Y166
T4 sequence (O15530 1-404): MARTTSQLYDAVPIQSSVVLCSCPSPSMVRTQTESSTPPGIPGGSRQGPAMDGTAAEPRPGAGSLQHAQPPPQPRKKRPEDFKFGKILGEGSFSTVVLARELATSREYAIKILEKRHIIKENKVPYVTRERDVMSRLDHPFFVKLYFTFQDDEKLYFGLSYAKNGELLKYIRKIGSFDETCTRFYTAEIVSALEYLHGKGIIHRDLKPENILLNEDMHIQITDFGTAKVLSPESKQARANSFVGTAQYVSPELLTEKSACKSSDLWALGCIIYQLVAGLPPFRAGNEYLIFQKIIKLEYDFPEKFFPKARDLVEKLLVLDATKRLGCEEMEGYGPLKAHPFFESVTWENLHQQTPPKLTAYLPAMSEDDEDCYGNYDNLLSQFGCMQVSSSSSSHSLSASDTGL
Text: as §1, §2

His-PDK1 = molecular target: T5, His-PDK1 (Homo sapiens, UniProt O15530); assay: Surface Plasmon Resonance (BiaCore) binding of His-PDK1 to GST-PIF / Region B peptide
T5 construct: made in house; host or cells: Sf21 insect cells (baculovirus, pFASTBAC HTb)
T5 sequence (O15530 1-556): T1 sequence (O15530 1-556)
Description: FIG. 12. Quantitative analysis of the binding of PDK1 to PIF. Surface Plasmon Resonance measurements were carried out on a BiaCore instrument as described in the methods section. […] The responses at steady state binding were recorded. […] All data are single determinations from a representative experiment that was repeated at least 3 times with similar results.
BiaCore measurements. GST-PIF was coupled through amine groups to the Sensor Chip CM5 according to the manufacturer's instructions. […] The 24 residue peptide overlapping Region B was biotinylated through its C-terminal Cys and bound to Avidin coated Sensor Chip SA. […] The decrease in steady state binding was used to determine the Kd of interaction between PDK1 and the peptide, according to the […] relationship. The measure of response in our experiments is termed RU; 1000 RU=1 ng/mm^2 of protein bound to the surface.

Substance: F974: GST-PIF mutant, F974 mutated to Ala [Lipid F974]
association of endogenous PDK1 with GST-PIF protein (endogenous PDK1): completely abolished

Substance: F977: GST-PIF mutant, F977 mutated to Ala [Lipid F977]
association of endogenous PDK1 with GST-PIF protein (endogenous PDK1): completely abolished

Second part, led by results:

two hybrid interaction with full length PDK1 (PDK1 [2]): positive interaction | two hybrid interaction with the PH domain of PDK1 (PDK1 [3]): not | two hybrid interaction with the isolated kinase domain of PDK1 (PDK1 [4]): positive interaction
Substance: PIF: C-terminal 77 amino acids of PRK2
inhibition of the catalytic activity of PDK1 (PDK1 [1]): ~2 fold

pKd (His-PDK1; His-PDK1 0.5 μM mixed with free peptide, injected over immobilised peptide, read-out: Kd from competition by addition of free peptide): 5.82 | pKd (His-PDK1; immobilised and biotinylated 24 residue peptide, His-PDK1 injected, read-out: Kd): 6.10
Substance: REPRILSEEEQEMFRDFDYIADWC [Region B peptide]

association of endogenous PDK1 with GST-PIF protein (endogenous PDK1): completely abolished
Substance: Y979: GST-PIF mutant, Y979 mutated to Ala [Lipid Y979]
